Experimental data published in patent US20190185537A1 (AstraZeneca / MedImmune, published 2019).
Changes are numbered by the printed parent chain. Names may count otherwise. Read-outs that look alike come from different tables or passages of the source. Numbered stars: 1 amine (or outer) side, 2 acyl side, 3 side chain; on linkers, the order of the positions; unused ones are H or OH. Side chains are listed from the residue outwards. Ends that are not written are not given here. * marks the point of attachment. γGlu = O=C(O)[C@H](CCC(=O)[*:2])N[*:1]; Palmitoyl = CCCCCCCCCCCCCCCC(=O)*

B1: g319 (peptide)
peptide: HSQGTFTSDYSKYLDSRRAQDFVQWLVAGGPSSGAPPPSK-NH2
B2: g320 (peptide)
peptide: HSQGTFTSDYSKYLDSRRAQDFVQWLVAGGPSSGAPPPSK(Palmitoyl)-NH2
B3: G849 (peptide)
peptide: HSQGTFTSDKSRYLDSRSARDFVAWLEAGG
modifications: X10 = K(gE-palm); C-terminal amide
B4: G380 (peptide)
peptide: HGQGTFTSDYSKYLDSK([γGlu-Palmitoyl])RAQDFVQWLVAGG-NH2
modifications: N-terminus assumed
SMILES: CCCCCCCCCCCCCCCC(=O)N[C@@H](CCC(=O)NCCCC[C@H](NC(=O)[C@H](CO)NC(=O)[C@H](CC(=O)O)NC(=O)[C@H](CC(C)C)NC(=O)[C@H](Cc1ccc(O)cc1)NC(=O)[C@H](CCCCN)NC(=O)[C@H](CO)NC(=O)[C@H](Cc1ccc(O)cc1)NC(=O)[C@H](CC(=O)O)NC(=O)[C@H](CO)NC(=O)[C@@H](NC(=O)[C@H](Cc1ccccc1)NC(=O)[C@@H](NC(=O)CNC(=O)[C@H](CCC(N)=O)NC(=O)CNC(=O)[C@@H](N)Cc1c[nH]cn1)[C@@H](C)O)[C@@H](C)O)C(=O)N[C@@H](CCCNC(=N)N)C(=O)N[C@@H](C)C(=O)N[C@@H](CCC(N)=O)C(=O)N[C@@H](CC(=O)O)C(=O)N[C@@H](Cc1ccccc1)C(=O)N[C@H](C(=O)N[C@@H](CCC(N)=O)C(=O)N[C@@H](Cc1c[nH]c2ccccc12)C(=O)N[C@@H](CC(C)C)C(=O)N[C@H](C(=O)N[C@@H](C)C(=O)NCC(=O)NCC(N)=O)C(C)C)C(C)C)C(=O)O
B5: G865 (peptide)
peptide: B3 peptide with R12S
modifications: X10 = K(gE-palm); C-terminal amide
B6: G796 (peptide)
peptide: B3 peptide with R12S, S18R
modifications: X10 = K(gE-palm); C-terminal amide
B7: g848 (peptide)
peptide: HSQGTFTSDK([γGlu-Palmitoyl])SRYLDSERARDFVAWLEAGG-NH2
modifications: N-terminus assumed
SMILES: CCCCCCCCCCCCCCCC(=O)N[C@@H](CCC(=O)NCCCC[C@H](NC(=O)[C@H](CC(=O)O)NC(=O)[C@H](CO)NC(=O)[C@@H](NC(=O)[C@H](Cc1ccccc1)NC(=O)[C@@H](NC(=O)CNC(=O)[C@H](CCC(N)=O)NC(=O)[C@H](CO)NC(=O)[C@@H](N)Cc1c[nH]cn1)[C@@H](C)O)[C@@H](C)O)C(=O)N[C@@H](CO)C(=O)N[C@@H](CCCNC(=N)N)C(=O)N[C@@H](Cc1ccc(O)cc1)C(=O)N[C@@H](CC(C)C)C(=O)N[C@@H](CC(=O)O)C(=O)N[C@@H](CO)C(=O)N[C@@H](CCC(=O)O)C(=O)N[C@@H](CCCNC(=N)N)C(=O)N[C@@H](C)C(=O)N[C@@H](CCCNC(=N)N)C(=O)N[C@@H](CC(=O)O)C(=O)N[C@@H](Cc1ccccc1)C(=O)N[C@H](C(=O)N[C@@H](C)C(=O)N[C@@H](Cc1c[nH]c2ccccc12)C(=O)N[C@@H](CC(C)C)C(=O)N[C@@H](CCC(=O)O)C(=O)N[C@@H](C)C(=O)NCC(=O)NCC(N)=O)C(C)C)C(=O)O
B8: G812 (peptide)
peptide: HSQGTFTSDKSKYLEGQAAKEFIAWLEKGR
modifications: X10 = K(gE-palm); C-terminal amide
B9: G931 (peptide)
peptide: HSQGTFTSDYSKK([γGlu-Palmitoyl])LDSERARDFVAWLVAGG-OH
modifications: N-terminus assumed
SMILES: CCCCCCCCCCCCCCCC(=O)N[C@@H](CCC(=O)NCCCC[C@H](NC(=O)[C@H](CCCCN)NC(=O)[C@H](CO)NC(=O)[C@H](Cc1ccc(O)cc1)NC(=O)[C@H](CC(=O)O)NC(=O)[C@H](CO)NC(=O)[C@@H](NC(=O)[C@H](Cc1ccccc1)NC(=O)[C@@H](NC(=O)CNC(=O)[C@H](CCC(N)=O)NC(=O)[C@H](CO)NC(=O)[C@@H](N)Cc1c[nH]cn1)[C@@H](C)O)[C@@H](C)O)C(=O)N[C@@H](CC(C)C)C(=O)N[C@@H](CC(=O)O)C(=O)N[C@@H](CO)C(=O)N[C@@H](CCC(=O)O)C(=O)N[C@@H](CCCNC(=N)N)C(=O)N[C@@H](C)C(=O)N[C@@H](CCCNC(=N)N)C(=O)N[C@@H](CC(=O)O)C(=O)N[C@@H](Cc1ccccc1)C(=O)N[C@H](C(=O)N[C@@H](C)C(=O)N[C@@H](Cc1c[nH]c2ccccc12)C(=O)N[C@@H](CC(C)C)C(=O)N[C@H](C(=O)N[C@@H](C)C(=O)NCC(=O)NCC(=O)O)C(C)C)C(C)C)C(=O)O

Assays:
[1] = target: human GLP-1 receptor (human) (UniProt P43220); assay: cell-based or functional assay
Chain of human GLP-1 receptor (human) (P43220 24-463): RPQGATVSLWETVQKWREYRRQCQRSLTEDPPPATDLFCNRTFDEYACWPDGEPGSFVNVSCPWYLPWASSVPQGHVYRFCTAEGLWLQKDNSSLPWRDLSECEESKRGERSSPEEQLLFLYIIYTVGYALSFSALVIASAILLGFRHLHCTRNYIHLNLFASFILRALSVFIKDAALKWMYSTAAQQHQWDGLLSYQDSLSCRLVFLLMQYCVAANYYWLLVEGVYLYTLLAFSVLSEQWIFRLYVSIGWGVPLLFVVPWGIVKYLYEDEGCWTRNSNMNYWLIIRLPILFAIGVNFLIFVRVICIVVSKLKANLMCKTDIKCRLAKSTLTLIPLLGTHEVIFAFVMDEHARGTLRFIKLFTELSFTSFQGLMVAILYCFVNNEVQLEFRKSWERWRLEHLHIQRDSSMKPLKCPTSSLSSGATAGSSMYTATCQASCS

[2] = target: human glucagon receptor (human) (UniProt P47871); assay: cell-based or functional assay
Chain of human glucagon receptor (human) (P47871 26-477): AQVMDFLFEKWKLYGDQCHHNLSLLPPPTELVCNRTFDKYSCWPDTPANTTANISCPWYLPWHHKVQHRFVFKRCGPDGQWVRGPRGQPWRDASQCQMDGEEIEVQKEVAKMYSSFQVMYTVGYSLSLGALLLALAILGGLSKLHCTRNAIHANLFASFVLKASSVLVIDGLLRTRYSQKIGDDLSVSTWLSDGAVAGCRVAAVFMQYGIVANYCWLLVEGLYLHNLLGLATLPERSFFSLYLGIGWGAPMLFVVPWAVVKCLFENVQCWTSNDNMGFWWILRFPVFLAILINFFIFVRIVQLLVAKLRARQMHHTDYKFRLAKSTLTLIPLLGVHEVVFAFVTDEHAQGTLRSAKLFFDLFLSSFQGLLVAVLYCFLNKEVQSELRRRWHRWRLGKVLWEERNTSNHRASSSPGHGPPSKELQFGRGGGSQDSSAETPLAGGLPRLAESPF

[3] = target: T1, human glucose-dependent insulinotropic peptide (gastric inhibitory polypeptide) receptor (human) (UniProt P48546); assay: cell-based or functional assay
T1 sequence (looked up): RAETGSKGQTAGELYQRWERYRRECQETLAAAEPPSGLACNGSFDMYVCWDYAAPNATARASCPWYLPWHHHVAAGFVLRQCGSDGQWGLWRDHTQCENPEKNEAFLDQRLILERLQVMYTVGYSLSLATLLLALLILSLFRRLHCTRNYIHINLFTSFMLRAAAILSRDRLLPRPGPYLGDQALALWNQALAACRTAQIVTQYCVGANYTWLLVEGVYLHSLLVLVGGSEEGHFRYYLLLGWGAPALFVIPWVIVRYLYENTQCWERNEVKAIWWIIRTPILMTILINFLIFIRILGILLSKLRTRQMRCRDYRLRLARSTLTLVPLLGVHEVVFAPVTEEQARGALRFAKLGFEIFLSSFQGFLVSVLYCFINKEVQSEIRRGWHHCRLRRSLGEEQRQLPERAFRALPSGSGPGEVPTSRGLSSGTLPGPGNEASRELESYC

human GLP-1 receptor [4] = target: T2, human GLP-1 receptor (human, UniProt P43220 24-463); assay: cell-based or functional assay
[5] = target: T3, human glucose-dependent insulinotropic peptide (gastric inhibitory polypeptide) receptor (human, UniProt P48546 22-466); assay: cell-based or functional assay
T3 sequence (looked up): T1 sequence (looked up)

human GLP-1 receptor [6] = target: T2, human GLP-1 receptor; assay: cell-based or functional assay; remark: listed apart in the source
human glucagon receptor [7] = target: T4, human glucagon receptor (human, UniProt P47871 26-477); assay: cell-based or functional assay
T4 sequence (P47871 26-477): as the sequence (P47871 26-477) above

[8] = target: T3, human glucose-dependent insulinotropic …; assay: cell-based or functional assay; remark: listed apart in the source
human GLP-1 receptor [9] = target: T2, human GLP-1 receptor; assay: cell-based or functional assay; remark: listed apart in the source
[10] = target: human serum albumin (human) (UniProt P02768); assay: calculated from the variation in cAMP generation with the HSA concentration
Chain of human serum albumin (human) (P02768 25-609 limits assumed): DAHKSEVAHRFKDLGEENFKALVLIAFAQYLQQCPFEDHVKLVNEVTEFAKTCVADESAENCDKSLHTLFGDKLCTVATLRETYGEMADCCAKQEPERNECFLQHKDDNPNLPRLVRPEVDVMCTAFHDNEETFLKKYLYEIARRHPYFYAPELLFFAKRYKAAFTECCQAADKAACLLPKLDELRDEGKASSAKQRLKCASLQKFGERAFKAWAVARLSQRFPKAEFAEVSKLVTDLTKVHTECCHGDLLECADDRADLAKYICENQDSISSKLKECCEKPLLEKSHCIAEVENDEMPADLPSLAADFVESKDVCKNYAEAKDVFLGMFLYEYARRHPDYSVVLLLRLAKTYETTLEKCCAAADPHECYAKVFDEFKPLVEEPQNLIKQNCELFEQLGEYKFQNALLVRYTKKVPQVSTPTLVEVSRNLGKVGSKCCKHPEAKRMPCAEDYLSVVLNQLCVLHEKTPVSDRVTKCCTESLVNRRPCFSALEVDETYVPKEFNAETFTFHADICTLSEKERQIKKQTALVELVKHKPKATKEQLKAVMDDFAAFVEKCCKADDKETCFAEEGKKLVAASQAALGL

rat glucagon receptor = rat glucagon receptor (rat, UniProt P30082 27-485); assay: cell-based or functional assay
Chain of rat glucagon receptor (P30082 27-485): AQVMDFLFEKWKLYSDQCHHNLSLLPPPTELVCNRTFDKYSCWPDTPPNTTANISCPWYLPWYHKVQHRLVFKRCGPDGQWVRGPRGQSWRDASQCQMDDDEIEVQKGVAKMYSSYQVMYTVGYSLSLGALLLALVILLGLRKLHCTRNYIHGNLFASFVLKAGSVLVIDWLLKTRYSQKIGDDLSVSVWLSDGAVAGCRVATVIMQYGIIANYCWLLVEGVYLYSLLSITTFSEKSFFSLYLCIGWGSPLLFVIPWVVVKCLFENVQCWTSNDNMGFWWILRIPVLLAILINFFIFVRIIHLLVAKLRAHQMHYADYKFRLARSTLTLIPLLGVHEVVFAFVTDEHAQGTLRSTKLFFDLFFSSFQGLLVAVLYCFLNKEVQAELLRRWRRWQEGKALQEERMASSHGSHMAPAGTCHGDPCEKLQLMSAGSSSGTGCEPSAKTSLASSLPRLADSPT

human glucagon receptor [11] = target: T4, human glucagon receptor; assay: cell-based or functional assay; remark: listed apart in the source
human GLP-1 receptor [12] = target: T2, human GLP-1 receptor; assay: cell-based or functional assay; remark: listed apart in the source
rat GLP-1 receptor = target: T5, rat GLP-1 receptor (rat, UniProt P32301 22-463); assay: cell-based or functional assay
T5 sequence (looked up): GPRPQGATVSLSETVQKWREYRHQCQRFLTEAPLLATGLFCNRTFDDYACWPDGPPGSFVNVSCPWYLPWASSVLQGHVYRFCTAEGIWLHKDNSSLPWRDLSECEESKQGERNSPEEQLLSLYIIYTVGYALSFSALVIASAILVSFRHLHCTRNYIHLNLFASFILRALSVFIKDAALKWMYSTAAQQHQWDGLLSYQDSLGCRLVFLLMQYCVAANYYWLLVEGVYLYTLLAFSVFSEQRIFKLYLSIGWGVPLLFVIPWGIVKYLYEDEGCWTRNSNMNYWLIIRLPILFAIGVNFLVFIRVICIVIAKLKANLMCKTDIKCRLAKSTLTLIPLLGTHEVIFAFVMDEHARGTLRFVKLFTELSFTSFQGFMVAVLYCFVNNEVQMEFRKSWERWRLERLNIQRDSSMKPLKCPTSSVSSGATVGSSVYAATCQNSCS

mouse glucagon receptor = mouse glucagon receptor (mouse, UniProt Q61606 27-485); assay: cell-based or functional assay
Chain of mouse glucagon receptor (Q61606 27-485): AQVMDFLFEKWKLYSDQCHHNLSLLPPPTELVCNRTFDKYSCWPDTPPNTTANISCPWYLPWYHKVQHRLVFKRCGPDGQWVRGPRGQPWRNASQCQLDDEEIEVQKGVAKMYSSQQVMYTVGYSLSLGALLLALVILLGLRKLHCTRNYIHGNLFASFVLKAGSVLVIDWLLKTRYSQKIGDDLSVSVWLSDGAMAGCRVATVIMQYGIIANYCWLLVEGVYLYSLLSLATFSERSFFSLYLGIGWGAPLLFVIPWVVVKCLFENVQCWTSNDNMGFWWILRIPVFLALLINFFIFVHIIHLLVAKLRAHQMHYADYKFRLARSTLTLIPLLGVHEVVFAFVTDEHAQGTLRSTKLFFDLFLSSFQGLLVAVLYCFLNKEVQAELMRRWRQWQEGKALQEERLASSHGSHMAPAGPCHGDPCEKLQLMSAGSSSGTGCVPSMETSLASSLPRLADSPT

human glucagon receptor [13] = target: T4, human glucagon receptor; assay: cell-based or functional assay; remark: listed apart in the source
mouse GLP-1 receptor = target: T6, mouse GLP-1 receptor (mouse, UniProt O35659 22-463); assay: cell-based or functional assay
T6 sequence (looked up): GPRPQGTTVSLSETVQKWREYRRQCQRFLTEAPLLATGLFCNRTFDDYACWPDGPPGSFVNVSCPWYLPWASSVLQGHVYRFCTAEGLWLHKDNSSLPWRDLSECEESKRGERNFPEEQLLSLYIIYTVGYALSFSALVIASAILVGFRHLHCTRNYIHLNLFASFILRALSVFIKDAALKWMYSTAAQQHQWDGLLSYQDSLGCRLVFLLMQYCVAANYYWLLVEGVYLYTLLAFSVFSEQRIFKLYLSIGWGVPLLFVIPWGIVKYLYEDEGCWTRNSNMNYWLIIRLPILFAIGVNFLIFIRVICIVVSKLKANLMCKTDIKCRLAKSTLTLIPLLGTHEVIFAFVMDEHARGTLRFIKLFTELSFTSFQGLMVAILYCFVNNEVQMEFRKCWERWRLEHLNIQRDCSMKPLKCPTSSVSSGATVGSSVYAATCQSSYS

human glucagon receptor [14] = target: T4, human glucagon receptor; assay: cell-based or functional assay; remark: listed apart in the source
human GLP-1 receptor [15] = target: T2, human GLP-1 receptor; assay: cell-based or functional assay; remark: listed apart in the source

Row | Binder | cAMP EC50 (assay 1) [1] [nM] | cAMP EC50 (assay 1) [2] [nM] | cAMP EC50 (assay 1) [3] [nM] | EC50 at the GLP1R at 0% HSA (calculated) (human GLP-1 receptor [4]) [nM] | cAMP EC50 (assay 1) [5] [nM] | cAMP EC50 (assay 1) (human GLP-1 receptor [6]) [nM] | cAMP EC50 (assay 1) (human glucagon receptor [7]) [nM] | cAMP EC50 (assay 1) [8] [nM] | cAMP EC50 (assay 1) (human GLP-1 receptor [9]) [nM] | free peptide at 4.4% HSA [10] [%] | cAMP EC50 (assay 2, 3.2% rat serum albumin) (rat glucagon receptor) [nM] | cAMP EC50 (assay 2, 4.4% human serum albumin) (human glucagon receptor [11]) [nM] | cAMP EC50 (assay 2, 4.4% human serum albumin) (human GLP-1 receptor [12]) [nM] | cAMP EC50 (assay 2, 3.2% rat serum albumin) (rat GLP-1 receptor) [nM] | cAMP EC50 (assay 2, 3.2% mouse serum albumin) (mouse glucagon receptor) [nM] | cAMP EC50 (assay 1) (human glucagon receptor [13]) [nM] | cAMP EC50 (assay 2, 3.2% mouse serum albumin) (mouse GLP-1 receptor) [nM] | cAMP EC50 (assay 1) (human glucagon receptor [14]) [nM] | cAMP EC50 (assay 1) (human GLP-1 receptor [15]) [nM]
1 | B1 | 0.0361 | 0.0104 |  |  |  |  |  |  |  |  |  |  |  |  |  |  |  |  | 
2 | B2 | 0.00938 | 0.0032 | 1.01 |  |  |  |  |  |  |  |  |  |  |  |  |  |  |  | 
3 | B3 |  |  |  | 0.002 | 18.1 | 0.00907 | 0.00226 | 17 | 0.009 | 0.48 | 4.05 | 0.079 | 0.172 | 0.044 | 0.103 |  |  |  | 
4 | B4 |  |  |  |  | 609 | 0.1 | 0.217 | 130 | 0.077 |  |  | 53.6 | 6.54 |  | 576 | 0.362 | 15 |  | 
5 | B5 |  |  |  |  |  |  | 0.0126 | 22 | 0.0083 |  | 87.1 |  | 0.15 |  | 1.1 |  | 0.096 |  | 
6 | B6 |  |  |  |  | 17.4 | 0.014 | 0.00176 | 14 | 0.013 |  | 2 | 0.053 | 0.14 | 0.023 | 0.034 | 0.00181 | 0.13 |  | 
7 | B7 |  |  |  |  | 2.77 | 0.00942 |  |  |  |  |  |  |  |  |  | 0.000966 |  |  | 
8 | B8 |  |  |  |  |  |  | 0.00817 | 2.7 | 0.011 |  | 14.1 | 0.764 | 0.316 | 0.019 | 0.947 |  | 0.13 |  | 
9 | B9 |  |  |  |  |  |  |  |  |  |  |  |  |  |  |  |  |  | 0.0178 | 0.13
